In publication PMC4340967, “Histidine 352 (His^352) and Tryptophan 355 (Trp^355) Are Essential for Flax UGT74S1 Glucosylation Activity toward Secoisolariciresinol” (PLoS ONE, 2015):
Positions count from the first letter of the chain named. Names and notes keep the numbering of the source.

B1: UGT74S1 (wild type, W) (Linum usitatissimum) (protein)
chain: MAGDEREKAHCLVVPAAAQGHFTPLLQFSKRLIPKRIRVTLALTRFIHSTMTVTAQSGIHIDTISDGFDHSGLILQDPEHYSQTFRRVGSETLTDLIRKQSESRHPVHCIIYDASMPWFLDVAKRFGIVGAAFLTQSCAVNAIYYHLREGTIKRPVVSDPAAGTLVIDGLPPLEVSDLPSFIWDDLHTEFLAAHLRQFSNDGADWVFCNTVYQLELEAVDWLTKQWLINFRTIGPTIPSFYLDKQIPDDKDYDISIFNPQNQTCMNWLQSKPDGSVVYVSFGSLARLSPQQTEELYFGLKNSNHYFLWVVRESEVAKLPKEEYLSGEKGLVVSWCSQLQVLASGKVGCFVTHCGWNSTLEALSLGVPMVAMPECGDQLTNAKFIKDVWKTGVRAEADDGKGIMWGMIKREVIERCIREVMEGEETRRNADKWGKIIKEAVVEGGSSDKNTEDFATSLINFAETFQFSC
B2: UGT74S1 (wild type, W) (Linum usitatissimum; C335A) (protein)
chain: B1 chain with C335A
B3: UGT74S1 (wild type, W) (Linum usitatissimum; Q337A) (protein)
chain: B1 chain with Q337A

Each protein was assayed on O=c1ccn([C@@H]2O[C@H](CO[P@@](=O)(O)O[P@@](=O)(O)O[C@H]3O[C@H](CO)[C@@H](O)[C@H](O)[C@H]3O)[C@@H](O)[C@H]2O)c(=O)[nH]1 (assay: UPLC-MS assay of SMG formation, Lineweaver-Burk). Conditions: 0.82-8.2 mM UDP-glucose, 280 µM SECO fixed, 1 mM NaCl, pH 8.0, 30°C, for SMG production.
Assay type: biochemical, Linum usitatissimum
Source text: (§1) UPLC-MS assay of SMG formation, Lineweaver-Burk on UGT74S1 (wild type, W)
B1 was tested, and the Km was 1103 µM, the kcat was 0.135 s⁻¹ and the kcat/Km was 122 M⁻¹ s⁻¹. B2 showed a Km of 3443 µM, a kcat of 0.256 s⁻¹ and a kcat/Km of 74.3 M⁻¹ s⁻¹. B3 gave a Km of 27610 µM, a kcat of 0.547 s⁻¹ and a kcat/Km of 19.8 M⁻¹ s⁻¹.

Each protein was assayed on COc1cc(C[C@@H](CO)[C@H](CO)Cc2ccc(O)c(OC)c2)ccc1O (assay: UPLC-MS assay of SMG formation, Lineweaver-Burk). Conditions: 70-1650 µM SECO, 1.64 mM UDP-glucose fixed, 1 mM NaCl, pH 8.0, 30°C, for SMG production.
Assay type: biochemical, Linum usitatissimum
Source text: as §1
Work on B1 yielded a Km of 717 µM, a kcat of 0.23 s⁻¹ and a kcat/Km of 321 M⁻¹ s⁻¹. B2 gave a Km of 1538 µM, a kcat of 0.0494 s⁻¹ and a kcat/Km of 32.1 M⁻¹ s⁻¹. Work on B3 yielded a Km of 2716 µM, a kcat of 0.0077 s⁻¹ and a kcat/Km of 2.85 M⁻¹ s⁻¹.
